Reference: article PMC12904073, “Two Novel S‐methyltransferases Confer Dimethylsulfide Production in Actinomycetota” (Advanced Science, 2025)

Columns and labels:
[1] = tested on: T1, MddM1; assay: GC detection of DMS, Michaelis-Menten fit; format: biochemical, Mycolicibacterium poriferae; conditions: pH 9, 40 °C
T1 construct: full length (210 aa, ~23 kDa native), GST-tagged in pGEX-4T-1, expressed in E. coli BL21(DE3), glutathione Sepharose purified; no tag removal told

[2] = substrate: C[S+](CC[C@H](N)C(=O)O)C[C@H]1O[C@@H](n2cnc3c(N)ncnc32)[C@H](O)[C@@H]1O; assay: purified protein; conditions: pH 8, 30 °C, MeSH as co-substrate fixed at 1 mM, methyl donor
[3] = substrate: CS; assay: GC detection of DMS, Michaelis-Menten fit; format: biochemical, Thermobispora bispora; conditions: pH 8, 30 °C, SAM fixed at 1 mM, GST-tagged enzyme 2 µg

## CS [methanethiol]
[1]; SAM fixed at 1 mM, GST-tagged enzyme 1 µg
  Km: 760 µM

## C[S+](CC[C@H](N)C(=O)O)C[C@H]1O[C@@H](n2cnc3c(N)ncnc32)[C@H](O)[C@@H]1O (some centres unmarked) [S-adenosine-methionine]
[1]; MeSH as co-substrate fixed at 1 mM, methyl donor
  Km: 110 ± 50 µM

B1: TbMddM2 (Thermobispora bispora DSM 43833) (protein)
chain: MSAADVLPVNHHADHPGFSGVIGTVIGLIFLLAGRPTARLAADLAAVGPGDRVADIGCGPGTAVREAARRGAQATGVDPAPVMLRWARMAGRGEAMEWREGTAERVPLPDGWATVWWSLATVHHWKDVEAGLREAYRVLAPGGRLLAMERQIAPGATGQASHGWTRRQADAFADHCRAAGFTDVTVTAHRAGRRDVWVVTATRP
[2]
  Km: 20 ± 10 µM
  kcat: 0.05 ± 0.01 s⁻¹
[3]
  Km: 220 µM
